Our source for the protein production values is a protein production outcome set (Wang et al. 2014).

This data set in a line: label from the status in PepcDB records.
Turning to “MPWIQVYTPVAGSLGLSALVAAIPLVVIFVCLALFKMKAHKAGLLALASAMLIAITVWGMPAKLAGLATAQGAAFGLFPVFYIVITTIFLYNITVKGGQFEIIRASLAGVTADRRLQALLIAFCFGAFIEGAAGFGTPVAIAGATLAGLGFQPLYAAGVCLVANTAPVAFGAIGIPIVALAGVMGYGDDGMMKLSTMVGRQLPFISVIIPFYVIMIMVGWKKTIEILPAIIVCGVTFALSQWATATYLGPYLPDVTASLASIIALVLLLRVWQPKTIYTFAHEAPVTGATEHHYTTGEVFRAWSPYLALTVMVLLWGIPSIKTVLDKSTVEIEVKGLHNMIVKKVAKPEDTLTKIAAASAEIDRQLTLLSPADPKQAAIAAKLMELKAFETQLAAVEQGLVGQGAVLTDERLKACDIVSKKMAETQKLCKELVKTAAVPANQFKPLDKALADHLPLKVAAKYKFNFMSAAGTAILIAAFLSALICGVGFADTFRILGKTLYDMRFPALTVASVLGLAYVMNASGMTNCLGLIFTKTGHWFPFIAPFLGWLGVFLTGSDTSSNVLFGGLQKATAEQLGISPILTGAANTSGGVMGKMISPQSLAVATAATGMVGEEGTLFRFTLKHSIFLTILVGIIVYLQAYVLQWMIP”, the protein production result is listed as “failed”.
As to “MAADESYPSVKERAFFQGLPFDYAVVFDNALIDRLFSRLRQERALVEDGLLARPDHRPWRLGALITEADTLDRRLSEQIRCLSGQSLPVASIALVTATTEAREAVSLWASVTCPPNVVVTPDPRAWMAEADLDLVVVFAPGALAHPGLFAALGRALQRDGADFAVWNHLLVRRRAEAPGQDITYLRCPDPTRQPVALAHMEAAGPAWAATPRLFETIKGDLGKALIGMARHPLSIALLRGKPKVVRLNEFLGACRVDSLGTPPWPRQSALVEAYGAALEDETFRLEIDPAHPTQPIRLTPRRRAHSIDIVINFRDKPELTLAAMGSIYAQTTTARVSLFLIDNQSTPAARAAIDAEAARAPAGIAVRVLSYDRPFNHSAQTNLGAAAGNGEALVFMSNDCALVDPGALDEMAAWALAPGVGTVGVRLETAEGRLACSGICALYPDHDFHPIVAEGFDQLGAGLNRETFANTFACACLARAVFRQAGPLDAIGFPIGLNDVDYCLRLRERGLRHLYLGAFLARHQALGSRPASDDGAQSAFLRQTYGHLLFDKEYMLEYDFLRQFTAAKLRQDIRSQRDKTTTVLEHHHHHH”, the protein production result is given as “failed”.
The result for “MEMDTMFLAILIGAGLIGISVVTSLISFRVGAPLLLVFLGVGLLAGQDGIGGIVFNDSGTAYFIGSLALAVILFDSGFSTRLQTFRLAAAPSIVLATLGVALTTALVAIPSHSLLGLSWEESALMGAVVGSTDAAAVFFLLRVGGILIRDRVRATLEVESSTNDPMAIFLTITLVELASAGGFSGEALSWGLGLAFVRQMGLGLLCGWIGGHLLVVGINRLRLEPALYPILGLALALFLFAAVSMVDGSGFLAIYVAGMVMGNRKMRGGPALRRFQEALTWLAQMTMFLTLGLFASPSTFIDVALPSVLIGLFLVFVARPVAVWLCLLPFGYDRNETAFVAWVGLRGAVSILLAILPIAAGLEHAQEMFNAAFIVVVTSLLLQGWTIRPMARWLGLVVPPRLGPVDKVELQLPYGGDHELLVYRIAKGSPVAEGERIPRWARPSLVVRDGRSMKVLDSGRPQPGDHVYIFSAPRHGALLDRLFARPTALSPADEAYFGDFSLDASRTMGELATLYGIKVPEGAQDTAVGEWLTQRLGGAPARGDRVVLPPIEIIVREMDNSTDVIRTIGLSLDPGEGRPRRVPMFHNARDIIGSVRDWRAARRRFAAKNS” reads “failed”; that for “MSSSPEKKRRKKLSPESNSLPNDLIVTILARLSQSYYPKLSLVSKTFRAILASPELYQTRILLSRTETFLYVCLSFPGEPNPGWFTLYRKPNQTLTTKKKKNSVHLLAPILNSPPVEFPSLIAVGSYLYAFRAAIEEGTSDSLNCVEVYNTDTQTWIPVPPNKRIFKLQHMKGMLYMKVSKLLSFVAQDAEELAPLFPKLRSLLSTEVVAFKPKVSEGYEVLGFSVNTDLGRGSFCMIEEITYHYDPSVKFRWRRRQGGVWRSLVGLEGLPKFARYSSVKLADCGGKLVVLWHKYVPASGYEEKMVWCAEISLEKRSKKEIWGKIEWFDAVLRVPKYYQFVGAKSATV”, “failed”.
The result for “MSLSKPLFIFEMANNHMGNVEHGVALIRAIRESCQGFDFDFGFKLQYRNLDTFIHSSFKGRDDVKYVKRFEETRLQPEQMQKLVAEMKANGFKAICTPFDEESVDLIEAHGIEIIKIASCSFTDWPLLERIARSDKPVVASTAGARREDIDKVVSFMLHRGKDLTIMHCVAEYPTPDDHLHLARIKTLRQQYAGVRIGYSTHEDPDLMEPIMLAVAQGATVFEKHVGLPTDQYGINNYSANPEQVRRWLAAAARALAMLGDGEDDAVSETEQASLRSLRRGVFATRPVAAGEALTADNVSFAFPPVEGQLTANEWSKYVRYTAKTPIAADAPVMAADLEPVNEGHHHHHH” reads “not failed”.
On to “MALRLALSLCVYLLFTQGAQGNTDDFDCVEIYKQPAFQHPLLKDHKIQETFSLDGKIERSNKYNTKEHCPKGTVAILRQRNVSKGVHLNTAEYSGQHFATIETILDGSIYRGAEADISIHDLKLQNNQYSKSQIWLENGPPGQLNSIQAGLAVHPRLYGDSVTRFTIYWTGDGYQKTGCYNTQCPGFVVVSRNSRIGSGFWGTSVYGKTSLTFKLQVFQDGFSGNWALKMFDEVIGYWPKELFSHLNNGASLVRYGGNTFESPDGISPPMGNGFFPVADFKKTAHFNNVVVINSDYKRVYIEGRKIRLYVDSYNCFRATYWGYTKSTGEAFSFGGPGGNCGF”, for which the protein production result is on record as “failed”.
The result for “MTLFTLLLTLAWERLFKQGEHWQIDHRLEVIFRHVSPPSLFQTLFLTLCSMGVVAALLWLTSGILFGLISLLLWIVISLMCIGAGEIRQHYRRYLQAAQRGESDASREMAAELALIHGLPVGTSESEQLKELQNALLWINFRFYLAPLFWFVVAGPYGPVTLMGYAFLRARQTWLARHHTPLERAQSGVDSLLHWLDWIPARLAGAAYALLGHGEKALPAWFASLGDSRSSQYWVLTQLAQFSLARESHIEPVETPKAAVTLAKKVTLVLVVVVALLTIYGALV” reads “failed”.
Take “MVGNKVKSFMLPIISYAVPTFVLVYPSFFVSWLSESMHLAYWEVFAIVALPFLGRIIGSFIYQVFKNSVISYCFPFLGFLVILQNFLGALIFVRFLVGVIFGLLTSYAVESAVKSGRNVLVGFTTAGWPIGWVISYVAYVLLKNWNVINISGILIMLLALFELNGKEFGERSKISVSFPRLTSILIYVSALTPAFILQVMPSFLEVIKLTWLILPSYLLSIPTYVLLPIISEKVGIRKVLVISSIIVILSCVITFLLLPMMVIVFTSIGLGILGITPKYLAIRGEDPKRMGLALNIGSVMGLILPVVYGLMPFSSEFLLSILMVLMILI”: the protein production entry is given as “failed”.
As to “MELIFLGTSAGVPTRTRNVTAILLNLQHPTQSGLWLFDCGEGTQHQLLHTAFNPGKLDKIFISHLHGDHLFGLPGLLCSRSMSGIIQPLTIYGPQGIREFVETALRISGSWTDYPLEIVEIGAGEILDDGLRKVTAYPLEHPLECYGYRIEEHDKPGALNAQALKAAGVPPGPLFQELKAGKTITLEDGRQINGADYLAAPVPGKALAIFGDTGPCDAALDLAKGVDVMVHEATLDITMEAKANSRGHSSTRQAATLAREAGVGKLIITHVSSRYDDKGCQHLLRECRSIFPATELANDFTVFNV”, the protein production result is given as “failed”.
In the case of “MITFKEFVDYWFEAYASTAVKPSTQKRYRQLLKPALRAIGNKPLNKVKPLDIQNIYIALAGTQSNCTILKLHRLLHEIFKHAQMWEYISDNPVKKVVPPTPELEHHHHHH”, the protein production result was “not failed”.
Consider “MKIAILYREEREKEGEFLKEKISKEHEVIEFGEANAPGRVTADLIVVVGGDGTVLKAAKKAADGTPMVGFKAGRLGFLTSYTLDEIDRFLEDLRNWNFREETRWFIQIESELGNHLALNDVTLERDLSGKMVEIEVEVEHHSSMWFFADGVVISTPTGSTAYSLSIGGPIIFPECEVLEISPIAPQFFLTRSVVIPSNFKVVVESQRDINMLVDGVLTGKTKRIEVKKSRRYVRILRPPEYDYVTVIRDKLGYGRRIE”, for which the protein production result is “not failed”.
